B1: SC91.111 (antibody, V domains shown)
VH: QIQLVQSGPELKKPGETVKISCKASGYTLTTYGMNWVKQAPGKGLKWMGWINTYSGVPAYADDFKGRFAFSLETSASTAYLQINNFKNEDTATYFCARSELRNWYFDVWGTGTTVTVSS
VL: SFVMTQTPKFLLVSAGDRVTITCKASQNMGHNVAWYQQKPGQSPKLLIYYASNRYTGVPDRFTGSGYGTDFTFTISTVQAEDLAVYFCQQDYSSPFTFGSGTKLEIK
B2: SC91.155 (antibody, V domains shown)
VH: QIQLVQSGPELKKPGETVKISCKASGYTFTTYGMNWVKQAPGKGLKWMGWINSYSGVPAYADDFKGRFAFSLETFASTAYLQINNLRDEDTATYFCARSELRNWYFDVWGTGTTVTVSS
VL: SFVMTQTPKFLLVSAGDRVTITCKASQNLGNDVAWYQQKPGQSPRLLIYFASNRYTGVPDRFTGSGYGTDFTFTISTVQAEDLAVYFCQQDYSSPFTFGSGTKLEIK
B3: SC91.160 (antibody, V domains shown)
VH: QIQLVQSGPELKKPGETVKISCKASGYTFTTYGMNWVKQAPGKGLKWMGWINTYSGVPSSADDFKGRFAFSLETSASTAYLLINNLKNEDTATYFCARSELRNWYFDVWGTGTTVTVSS
VL: SFVMTQTPKFLLVSAGDRVTITCKASQNMGHDVAWYQQKPGQSPKLLIYSASNRYTGVPDRFTGSGYGTDFTFTISTVQAEDLAVYFCQQDYSSPFTFGSGTKLEMK
B4: SC91.149 (antibody, V domains shown)
VH: QVQLLQPGAELVKPGSSVKVSCKASGYTFTNYWMQWVKQRPGQGLEWIGEIDPSDTYTLYNQKFKGKATLTVDTSSSTAYMQLSSLTSEDSAVYYCARFGYYVDYWGQGTTLTVSS
VL: DVVMTQTPLSLPVSLGDQASISCRSSQSLVHSTGNTYFHWYLQKPGQSPELLIYKVSNRFSGVPDRFRGSGSGTDFTLKISRVEAEDLGVYFCSQSTHVPFTFGSGTKLEIK
B5: SC91.172 (antibody, V domains shown)
VH: QVQLQQPGADLVKPGTSVKLSCKASGYTFTSYWMQWVKQRPGQGLEWIGEIDPSDTYTMYNQKFKGKATLTVDTSSSTAYMQLSSLTSEDSAVYYCARFGYYVDYWGQGTTLTVSS
VL: DVVMTQTPLSLPVSLGDQASISCRSSQSLVHSTGNTYLHWYLQKAGQSPKLLIYKVSNRFSGVPDRFSGSGSGTDFTLKISRVEAEDLGVYFCSQSTHVPFTFGSGTKLEIK
B6: SC91.187 (antibody, V domains shown)
VH: QVQLQQPGPEFVKPGASVKLSCKASGYTFTSYWVQWVKQRPGQGLEWIGEIDPSDNYTLYNQNFKGKATLTVDTSSSTAYMQLSSLTSEDSAVYYCARFGFYVDYWGQGTTLTVSS
VL: DVVMTQTPLSLPVSLGEQASISCRSSQSLVHSTGNTYLHWYLQKPGQSPKLLIYKVSNRFSGVPDRFSGSGSGTDFTLKISRVEAEDLGVYFCSQSTHVPFTFGSGTKLEIK

These binders were tested against recombinant human BMPR-1A/ALK-3-Fc Chimera (R&D systems Catalog: 315-BR) (human) (UniProt P36894) (assay: ELISA).
recombinant human BMPR-1A/ALK-3-Fc Chimera (R&D systems Catalog: 315-BR) (human), sequence (P36894 24-152 limits assumed, change not shown): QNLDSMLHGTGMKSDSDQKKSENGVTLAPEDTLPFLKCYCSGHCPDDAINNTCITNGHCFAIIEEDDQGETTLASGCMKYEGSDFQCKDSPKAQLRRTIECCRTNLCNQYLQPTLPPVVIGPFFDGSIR
For B1, the ELISA was 0.077.
In the case of B2, the ELISA is reported as 0.059.
B3 gave an ELISA of 0.061.
With B4 the ELISA was 0.066.
Work on B5 yielded an ELISA of 0.062.
B6 gave an ELISA of 0.092.

From US20190153103A1
